Columns and labels:
[1] = target: SARS-CoV-2 nucleocapsid (N) protein, full length (419 amino acids) (SARS-CoV-2) (UniProt P0DTC9); assay: SEC-RALS
Nsp3 HSUD (SARS-CoV-2) = assay: EMSA
Nsp3 NAB (SARS-CoV-2) = assay: EMSA
[2] = test system: Nucleocapsid (N) protein (SARS-CoV-2); assay: EMSA
[3] = test system: Nsp3 Ubl1 (SARS-CoV-2 (MN908947.3?)); assay: EMSA
[4] = test system: Nsp3 Y domain (SARS-CoV-2); assay: EMSA
Nsp3 ADRP (SARS-CoV-2) = assay: EMSA
[5] = test system: Nsp3 Ubl1 (in N complex);N protein (in Ubl1 complex) (SARS-CoV-2;SARS-CoV-2); assay: EMSA
[6] = target: SARS-CoV-2 Nsp3 ubiquitin-like 1 (Ubl1) domain, residues 1-111 (SARS-CoV-2); assay: crystal structure

His6-Nsp3 Ubl1 domain (residues 1-111) (domain or fragment)
stoichiometry N (Ubl1 per N (4:4)) [1]: 1

5' UTR (1-245)
Kd (Nsp3 HSUD (SARS-CoV-2)): 41 µM | Kd (Nsp3 NAB (SARS-CoV-2)): 204 µM | Kd [2]: 790 nM | Kd [3]: 31 µM | Kd [4]: 700 nM | Kd (Nsp3 ADRP (SARS-CoV-2)): 198 µM | Kd [5]: 7 nM

SARS-CoV-2 Nsp3 ubiquitin-like 1 (Ubl1) domain, residues 1-111 (domain or fragment)
stoichiometry N [6]: 2

Source: publication PMC12323374
